Measurements published in US12422438B2, “Means and methods for single molecule peptide sequencing” (VIB VZW, priority 2017, dated 2025).

What was measured:
[1] = target: T1, T. aquaticus aminopeptidase T (Thermus aquaticus, UniProt P23341); assay: Aminopeptidase assay with different amino acid p-nitroanilide substrates at 40° C. and 80° C.; type: biochemical; settings: FIG. 11
T1 construct: 6xHis (C); made in house; host or cells: E. coli BL21(DE3), pET24b(+)
T1 sequence (P23341 with tags, fused parts or gaps): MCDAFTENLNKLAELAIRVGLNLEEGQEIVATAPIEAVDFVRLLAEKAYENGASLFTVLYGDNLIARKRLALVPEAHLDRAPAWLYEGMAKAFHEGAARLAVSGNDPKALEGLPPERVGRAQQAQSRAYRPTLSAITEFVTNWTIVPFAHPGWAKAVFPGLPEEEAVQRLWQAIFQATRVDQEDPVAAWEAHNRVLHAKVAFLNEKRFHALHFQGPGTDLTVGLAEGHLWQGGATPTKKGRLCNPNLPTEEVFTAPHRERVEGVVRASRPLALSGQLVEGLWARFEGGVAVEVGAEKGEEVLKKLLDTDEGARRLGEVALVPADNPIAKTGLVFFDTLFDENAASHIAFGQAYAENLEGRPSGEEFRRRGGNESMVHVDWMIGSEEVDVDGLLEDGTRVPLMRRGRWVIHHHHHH
Method: FIG. 11. Aminopeptidase assay with different amino acid p-nitroanilide substrates. Enzyme and substrate (1.5 mM) were incubated for 2 h at 40° C. or 80° C. in PBS, after which the released p-nitroanilide was quantified by measuring the absorbance at 405 nm.
As described herein and in line with the invention described in current application, the activity differs between different amino acids. At 80° C., the panel of amino acid substrates can be roughly divided in fast-cleaved (L, M, Y, R, F) and slow-cleaved (D, P) substrates. However, at 40° C. it seems like the panel is divided in fast-cleaved (Y, R) and slow-cleaved (D, P), and substrates that lie in between (L, M, F). […] Finally, TagAPT is not only active in the p-nitroanilide assay. […] The N-terminal amino acid from peptides with proline at the second position is not easily cleaved since peptide bonds adjacent to the amino acid proline are resistant to cleavage by most peptidases (Iyver et al. 2015 FEBS Open Bio. 2015 Apr. 2; 5:292-302). In contrast to what Is stated in Minagawa et al (1988 Agricultural and Biological Chemistry 52:1755-1763) we show here that T. aquaticus aminopeptidase T can cleave N-terminal amino acids even when proline is at the second position. This surprising finding greatly enhances the generic use of Tag-APT in the method and uses disclosed in current application and in single molecule peptide sequencing in general.

[2] = Organic solvent tolerance of aminopeptidase T, activity with L-leucine-p-nitroanilide substrate; type: biochemical
Method: (§1) FIG. 12. Organic solvent tolerance of aminopeptidase T from T. aquaticus. A. The activity of aminopeptidase T was measured with L-leucine-p-nitroanilide substrate. Enzyme and substrate were incubated for 3 h at 40° C. in 50 mM TrisHCl (pH 8) containing different concentrations of the organic solvents acetonitrile (ACN), methanol (MeOH) and ethanol (EtOH). B. Circular dichroism analysis of aminopeptidase T secondary structure in 0% versus 50% MeOH (in 10 mM dipotassium phosphate buffer (K2HPO4)). C. Enzyme activity in varying concentrations of MeOH in buffer (50 mM TrisHCl, pH 8) versus deionized water (MilliQ).
(§2) It is well-known in the art that this can be achieved by solvents (such as methanol) or high temperatures. When these harsh conditions are needed, the aminopeptidases used should tolerate solvents and/or high temperatures. […] At higher organic solvent concentrations, activity can still be detected, albeit lower. […] Furthermore, the enzyme appears to be fully active in deionized (MS grade) water, which might be advantageous when the enzyme will be used with ultra-sensitive chip technology (e.g. electrical biosensor such as field effect transistors) (FIG. 12C).

[3] = Circular dichroism analysis of aminopeptidase T secondary structure; type: physicochemical; settings: 0% methanol versus 50% methanol, 10 mM K2HPO4
Method: as §1, §2

[4] = Peptidase assay with L-leucine-p-nitroaniline of purified enzyme; type: biochemical; settings: 70° C., PBS buffer
Method: A peptidase assay with L-leucine-p-nitroaniline (140 μl PBS buffer, 30 μl 24 mM L-leucine-p-nitroaniline in MeOH and 10 μl purified Tag-APT) confirmed the presence of the active (amino) peptidase, with thermophilic properties (activity at Taq optimum of 70° C.) (FIG. 8).

[5] = L-leucine-p-nitroanilide activity check after labeling with maleimide-DyLight650; type: biochemical; settings: N-terminal cysteine labeled with DyLight650
Source text: FIG. 13. Site-specific fluorescent labeling of aminopeptidase T. A. SDS-PAGE analysis of aminopeptidase T after labeling the N-terminal cysteine with an equimolar and a 1×, 10×, 100× and 1000× molar excess of maleimide-DyLight650. Aminopeptidase T was visualized with fluorescence (DyLight650 label) and coomassie (total protein). B. Aminopeptidase T activity check with L-leucine-p-nitroanilide after labeling with maleimide-DyLight650.
Recombinant Taq aminopeptidase containing an extra N-terminal cysteine, was incubated overnight with the fluorescent maleimide-DyLight650 probe in the presence of the reducing agent TCEP (10 mM). Maleimide-DyLight650 was added in equimolar concentration, and in 10×, 100× and 1000× excess molar concentration. After separating the aminopeptidase with SDS-PAGE, it was visualized using a Coomassie stain, as well as with fluorescence to evaluate protein labeling with DyLight650.

B1: aminopeptidase T from T. aquaticus: aminopeptidase T from Thermus aquaticus, Cys added at the N-terminus and 6×His at the C-terminus, SEQ ID No. 8 (protein)
chain: T1 sequence (P23341 with tags, fused parts or gaps)
modifications: labeled TaqAPT
Q: Which “cleavage of dipeptides with a proline at the second position” value [1] does the source give for B1 here?
A: cleaves dipeptides even with a proline at the second position

Q: And the “acetonitrile concentration up until which enzyme remains completely active” value ([2]; acetonitrile, 3 h at 40° C., 50 mM TrisHCl (pH 8))?
A: ≤ 33%

Q: What about the “enzyme activity in deionized (MS grade) water” value ([2]; deionized water (MilliQ) versus buffer) of the same molecule?
A: fully active

Q: What about the “ethanol concentration up until which enzyme remains completely active” value ([2]; ethanol, 3 h at 40° C., 50 mM TrisHCl (pH 8)) of the same molecule?
A: ≤ 33%

Q: What about the “methanol concentration up until which enzyme remains completely active” value ([2]; methanol, 3 h at 40° C., 50 mM TrisHCl (pH 8)) of the same molecule?
A: ≤ 50%

Q: What about the “structural differences by circular dichroism (CD)” value [3] of the same molecule?
A: no structural differences were observed

Q: And the “peptidase activity with L-leucine-p-nitroaniline” value [4]?
A: active

Q: What about the “function after labeling with maleimide-DyLight650” value [5] of the same molecule?
A: does not jeopardize its function
